Reference: patent US20110135573A1 (DYAX, published 2011)

Assays:
[1] = target: T1, Human MMP-9 catalytic domain (BIOMOL, SE-244) (human, UniProt P14780 107-457, limits assumed); test: Ki,app, enzyme inhibition assay (fluorogenic peptide substrate), IgG
T1 construct: domain: catalytic domain; also called Cat-huMMP-9; cat-huMMP-9

[2] = target: T2, Mouse MMP-9 (R&D, 909-MM), APMA-activated (mouse, UniProt P41245 108-730, limits assumed); test: as above
T2 construct: also called mMMP-9; mouse MMP-9 (R&D Systems #909-MM-010)

[3] = target: T3, human MMP-2 (Biomol #SE-237) (human, UniProt P08253 110-452, limits assumed); test: as above
T3 construct: also called hMMP-2

[4] = target: T1, Human MMP-9 catalytic domain (BIOMOL, …); test: Ki,app, enzyme inhibition assay (fluorogenic peptide substrate), small-scale sFab
Description: (§1) Target enzymes were incubated with inhibitor for two hours at 30° C. in reaction buffer (50 mM Tris-HCl pH 7.5, 150 mM NaCl, 5 mM CaCl₂, 0.05% Brij-35) in a total volume of 90 μL using a white 96 well plate (Costar). […] An anti-MMP-2 antibody (R&D Systems polyclonal IgG #AF902) was similarly tested with 200 nM as the highest inhibitor concentration. Reactions were initiated by the addition of 10 μL of a 10× concentrated stock of substrate, Mca-Lys-Pro-Leu-Gly-Leu-Dap(Dnp)-Ala-Arg-NH2, (Bachem M-2350), at final concentration of 10 μM and monitored at 30° C. in a Molecular Devices' Gemini fluorescence plate reader. The excitation and emission wavelengths were set at 328 nm and 393 nm, respectively. Kinetic data were acquired by the increase in fluorescence, and initial rates for each condition were plotted against the total inhibitor concentration. Reactions were performed in duplicates and all data replicates were plotted in a single graph and fit to the following equation¹: […]

[5] = target: T1, Human MMP-9 catalytic domain (BIOMOL, …); test: Ki,app, enzyme inhibition assay (fluorogenic peptide substrate), medium-scale sFab
Description: as §1

[6] = target: T3, human MMP-2 (Biomol #SE-237); test: as above
Description: as §1

[7] = target: T2, Mouse MMP-9 (R&D, 909-MM), …; test: Ki,app, enzyme inhibition assay (fluorogenic peptide substrate), small-scale sFab
Description: as §1

[8] = target: T3, human MMP-2 (Biomol #SE-237); test: as above
Description: as §1

T2 sequence (P41245 108-730 limits assumed): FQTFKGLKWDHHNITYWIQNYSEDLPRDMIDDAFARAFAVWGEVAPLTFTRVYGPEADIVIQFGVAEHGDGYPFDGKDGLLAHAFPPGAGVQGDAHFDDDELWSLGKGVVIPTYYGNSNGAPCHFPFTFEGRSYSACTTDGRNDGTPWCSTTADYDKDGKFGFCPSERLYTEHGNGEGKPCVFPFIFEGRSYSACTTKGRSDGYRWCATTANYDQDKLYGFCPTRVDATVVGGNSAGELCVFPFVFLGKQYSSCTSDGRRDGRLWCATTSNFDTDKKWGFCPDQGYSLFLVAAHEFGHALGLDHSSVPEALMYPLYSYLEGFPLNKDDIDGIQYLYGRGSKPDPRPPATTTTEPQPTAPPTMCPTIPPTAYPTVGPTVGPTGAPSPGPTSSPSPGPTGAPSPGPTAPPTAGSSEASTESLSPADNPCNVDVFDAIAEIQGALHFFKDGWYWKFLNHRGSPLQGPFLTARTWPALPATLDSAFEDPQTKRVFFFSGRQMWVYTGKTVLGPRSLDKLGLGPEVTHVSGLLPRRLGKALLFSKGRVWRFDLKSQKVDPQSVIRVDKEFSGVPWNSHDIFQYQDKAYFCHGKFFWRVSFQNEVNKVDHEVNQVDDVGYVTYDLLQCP
T3 sequence (P08253 110-452 limits assumed): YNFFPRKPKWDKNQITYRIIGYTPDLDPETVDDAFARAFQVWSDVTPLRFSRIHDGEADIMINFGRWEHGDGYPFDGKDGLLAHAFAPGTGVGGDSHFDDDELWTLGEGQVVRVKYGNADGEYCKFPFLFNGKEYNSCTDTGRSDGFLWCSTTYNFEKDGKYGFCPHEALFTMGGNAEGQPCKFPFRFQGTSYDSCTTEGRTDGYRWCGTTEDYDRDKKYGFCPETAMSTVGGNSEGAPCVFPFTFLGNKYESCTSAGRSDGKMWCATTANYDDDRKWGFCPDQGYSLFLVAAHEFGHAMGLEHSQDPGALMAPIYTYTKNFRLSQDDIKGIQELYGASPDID
T1 sequence (P14780 107-457 limits assumed): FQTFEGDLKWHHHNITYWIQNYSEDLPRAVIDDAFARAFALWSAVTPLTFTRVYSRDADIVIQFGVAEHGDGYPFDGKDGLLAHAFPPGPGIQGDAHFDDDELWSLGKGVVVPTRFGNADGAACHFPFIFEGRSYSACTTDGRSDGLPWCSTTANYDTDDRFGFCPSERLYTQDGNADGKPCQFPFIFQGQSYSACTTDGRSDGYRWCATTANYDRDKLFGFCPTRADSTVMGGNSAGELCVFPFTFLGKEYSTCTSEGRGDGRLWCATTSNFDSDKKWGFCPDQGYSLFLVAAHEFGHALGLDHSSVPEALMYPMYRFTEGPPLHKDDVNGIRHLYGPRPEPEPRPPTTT

| Ki [1] [nM] | Ki [2] [nM] | Ki [3] [nM] | Ki [4] [nM] | Ki [5] [nM] | Ki [6] [nM] | Ki [7] [nM] | Ki [8] [nM] | Binder |
| --- | --- | --- | --- | --- | --- | --- | --- | --- |
| – | – | – | 0.2 | 0.6 | 1.7 | – | 1.7 | M0299-A12 (Fab, V domains shown, sFab; variable domains only; also called M299-A12) VH: EVQLLESGGGLVQPGGSLRLSCAASGFTFSHYPMWWVRQAPGKGLEWVSYISSSGGGTFYADSVKGRFTISRDNSKNTLYLQMNSLRAEDTAVYYCAKDRAYGDYVGWNGFDYWGQGTLVTVSS VL: DIQMTQSPATLSLSPGERATLSCRASQSISSFLAWYQQKPGQAPRLLIYDASYRATGIPARFSGSGSGTDFTLTISSLEPEDYAVYYCQQRGNWPITFGQGTRLEIK |
| – | – | – | 0.7 | – | – | – | > 5 | M0299-C09 (Fab, V domains shown, sFab; variable domains only; also called M299-C09) VH: EVQLLESGGGLVQPGGSLRLSCAASGFTFSNYPMWWVRQAPGKGLEWVSYIVPSGGATFYADSVKGRFTISRDNSKNTLYLQMNSLRAEDTAVYYCAKDRAYGDYVGWNGFDYWGQGTLVTVSS VL: DIQMTQSPATLSLSPGERATLSCRASQSISSFLAWYQQKPGQAPRLLIYDASYRATGIPARFSGSGSGTDFTLTISSLEPEDYAVYYCQQRGNWPITFGQGTRLEIK |
| – | – | – | 0.3 | 0.5 | 1 | – | 0.5 | M0301-A09 (Fab, V domains shown, sFab; variable domains only; also called M301-A09) VH: EVQLLESGGGLVQPGGSLRLSCAASGFTFSYYDMWWVRQAPGKGLEWVSVIYPSGGYTAYADSVKGRFTISRDNSKNTLYLQMNSLRAEDTAVYYCAKDRAYGDYVGWNGFDYWGQGTLVTVSS VL: DIQMTQSPATLSLSPGERATLSCRASQSISSFLAWYQQKPGQAPRLLIYDASYRATGIPARFSGSGSGTDFTLTISSLEPEDYAVYYCQQRGNWPITFGQGTRLEIK |
| – | – | – | 1 | 1.7 | > 10 | – | 1.2 | M0301-D12 (Fab, V domains shown, sFab; variable domains only; also called M301-D12) VH: EVQLLESGGGLVQPGGSLRLSCAASGFTFSMYDMWWVRQAPGKGLEWVSVIYSSGGYTSYADSVKGRFTISRDNSKNTLYLQMNSLRAEDTAVYYCAKDRAYGDYVGWNGFDYWGQGTLVTVSS VL: DIQMTQSPATLSLSPGERATLSCRASQSISSFLAWYQQKPGQAPRLLIYDASYRATGIPARFSGSGSGTDFTLTISSLEPEDYAVYYCQQRGNWPITFGQGTRLEIK |
| – | – | – | 0.9 | – | – | 2.8 | 1 | M0306-D04 (Fab, V domains shown, sFab; variable domains only; also called M306-D04) VH: EVQLLESGGGLVQPGGSLRLSCAASGFTFSLYPMWWVRQAPGKGLEWVSSIYPSGGATFYADSVKGRFTISRDNSKNTLYLQMNSLRAEDTAVYYCAKDRAYGDYVGWNGFDYWGQGTLVTVSS VL: DIQMTQSPATLSLSPGERATLSCRASQSISSFLAWYQQKPGQAPRLLIYDASYRATGIPARFSGSGSGTDFTLTISSLEPEDYAVYYCQQRGNWPITFGQGTRLEIK |

More lines, now with the values behind:

| Binder | Ki [1] [nM] | Ki [2] [nM] | Ki [3] [nM] | Ki [4] [nM] | Ki [5] [nM] | Ki [6] [nM] | Ki [7] [nM] | Ki [8] [nM] |
| --- | --- | --- | --- | --- | --- | --- | --- | --- |
| X0106-B02 (antibody, V domains shown, Produced and tested as IgG1; germlined, optimized version of M0276-F11) VH: EVQLLESGGGLVQPGGSLRLSCAASGFTFSWYDMWWVRQAPGKGLEWVSVIYSSGGPTFYADSVKGRFTISRDNSKNTLYLQMNSLRAEDTAVYYCAKDRAYGDYVGWNGFDYWGQGTLVTVSS VL: EIVLTQSPATLSLSPGERATLSCRASQSISSFLAWYQQKPGQAPRLLIYDASYRATGIPARFSGSGSGTDFTLTISSLEPEDFAVYYCQQRGNWPITFGQGTRLEIK | 0.08 | 0.24 | 0.31 | – | – | – | – | – |
| X0106-C03 (antibody, V domains shown, Produced and tested as IgG1; germlined, optimized version of M0274-G08; printed as X0106-C04 in some sentences; also called X0106-C04) VH: EVQLLESGGGLVQPGGSLRLSCAASGFTFSVYDMWWVRQAPGKGLEWVSVIYPSGGATYYADSVKGRFTISRDNSKNTLYLQMNSLRAEDTAVYYCAKDRAYGDYVGWNGFDYWGQGTLVTVSS VL: EIVLTQSPATLSLSPGERATLSCRASQSISSFLAWYQQKPGQAPRLLIYDASYRATGIPARFSGSGSGTDFTLTISSLEPEDFAVYYCQQRGNWPITFGQGTRLEIK | 0.14 | 0.22 | 0.42 | – | – | – | – | – |
| X0106-F05 (antibody, V domains shown, Produced and tested as IgG1; germlined, optimized version of M0307-F04) VH: EVQLLESGGGLVQPGGSLRLSCAASGFTFSLYDMWWVRQAPGKGLEWVSVIYSSGGYTGYADSVKGRFTISRDNSKNTLYLQMNSLRAEDTAVYYCAKDRAYGDYVGWNGFDYWGQGTLVTVSS VL: EIVLTQSPATLSLSPGERATLSCRASQSISSFLAWYQQKPGQAPRLLIYDASYRATGIPARFSGSGSGTDFTLTISSLEPEDFAVYYCQQRGNWPITFGQGTRLEIK | 0.15 | 0.1 | 0.3 | – | – | – | – | – |
| M0272-H08 (Fab, V domains shown, sFab; variable domains only; also called M272-H08) VH: EVQLLESGGGLVQPGGSLRLSCAASGFTFSAYDMWWVRQAPGKGLEWVSVIYPSGGTTFYADSVKGRFTISRDNSKNTLYLQMNSLRAEDTAVYYCAKDRAYGDYVGWNGFDYWGQGTLVTVSS VL: DIQMTQSPATLSLSPGERATLSCRASQSISSFLAWYQQKPGQAPRLLIYDASYRATGIPARFSGSGSGTDFTLTISSLEPEDYAVYYCQQRGNWPITFGQGTRLEIK | – | – | – | 0.4 | – | – | – | – |
| M0273-A11 (Fab, V domains shown, sFab; variable domains only; also called M273-A11) VH: EVQLLESGGGLVQPGGSLRLSCAASGFTFSRYDMWWVRQAPGKGLEWVSVISPSGGATFYADSVKGRFTISRDNSKNTLYLQMNSLRAEDTAVYYCAKDRAYGDYVGWNGFDYWGQGTLVTVSS VL: DIQMTQSPATLSLSPGERATLSCRASQSISSFLAWYQQKPGQAPRLLIYDASYRATGIPARFSGSGSGTDFTLTISSLEPEDYAVYYCQQRGNWPITFGQGTRLEIK | – | – | – | 0.6 | 0.8 | 2.7 | – | – |
| M0273-B10 (Fab, V domains shown, sFab; variable domains only; also called M273-B10) VH: EVQLLESGGGLVQPGGSLRLSCAASGFTFSKYAMIWVRQAPGKGLEWVSWIPPSGGYTSYADSVKGRFTISRDNSKNTLYLQMNSLRAEDTAVYYCAKDRAYGDYVGWNGFDYWGQGTLVTVSS VL: DIQMTQSPATLSLSPGERATLSCRASQSISSFLAWYQQKPGQAPRLLIYDASYRATGIPARFSGSGSGTDFTLTISSLEPEDYAVYYCQQRGNWPITFGQGTRLEIK | – | – | – | 0.7 | – | – | – | – |
| M0273-C10 (Fab, V domains shown, sFab; variable domains only; also called M273-C10) VH: EVQLLESGGGLVQPGGSLRLSCAASGFTFSFYPMWWVRQAPGKGLEWVSYIYPSGGATFYADSVKGRFTISRDNSKNTLYLQMNSLRAEDTAVYYCAKDRAYGDYVGWNGFDYWGQGTLVTVSS VL: DIQMTQSPATLSLSPGERATLSCRASQSISSFLAWYQQKPGQAPRLLIYDASYRATGIPARFSGSGSGTDFTLTISSLEPEDYAVYYCQQRGNWPITFGQGTRLEIK | – | – | – | 0.9 | 1 | 2 | – | – |
| M0273-G07 (Fab, V domains shown, sFab; variable domains only; also called M273-G07) VH: EVQLLESGGGLVQPGGSLRLSCAASGFTFSHYDMWWVRQAPGKGLEWVSVIYPSGGPTYYADSVKGRFTISRDNSKNTLYLQMNSLRAEDTAVYYCAKDRAYGDYVGWNGFDYWGQGTLVTVSS VL: DIQMTQSPATLSLSPGERATLSCRASQSISSFLAWYQQKPGQAPRLLIYDASYRATGIPARFSGSGSGTDFTLTISSLEPEDYAVYYCQQRGNWPITFGQGTRLEIK | – | – | – | 0.6 | 0.6 | 1 | – | – |
| M0275-E12 (Fab, V domains shown, sFab; variable domains only; also called M275-E12) VH: EVQLLESGGGLVQPGGSLRLSCAASGFTFSHYDMWWVRQAPGKGLEWVSVIYSSGGFTGYADSVKGRFTISRDNSKNTLYLQMNSLRAEDTAVYYCAKDRAYGDYVGWNGFDYWGQGTLVTVSS VL: DIQMTQSPATLSLSPGERATLSCRASQSISSFLAWYQQKPGQAPRLLIYDASYRATGIPARFSGSGSGTDFTLTISSLEPEDYAVYYCQQRGNWPITFGQGTRLEIK | – | – | – | 0.3 | 0.4 | 0.5 | 1 | 0.9 |
| X0106-E04 (antibody, V domains shown, Produced and tested as IgG1; germlined, optimized version of M0275-D03; also called X0106-E4) VH: EVQLLESGGGLVQPGGSLRLSCAASGFTFSQYDMWWVRQAPGKGLEWVSVIYPSGTTFYADSVKGRFTISRDNSKNTLYLQMNSLRAEDTAVYYCAKDRAYGDYVGWNGFDYWGQGTLVTVSS VL: EIVLTQSPATLSLSPGERATLSCRASQSISSFLAWYQQKPGQAPRLLIYDASYRATGIPARFSGSGSGTDFTLTISSLEPEDFAVYYCQQRGNWPITFGQGTRLEIK | 0.13 | 0.23 | 0.38 | – | – | – | – | – |
